Reference: paper PMC4238058, “Phase transitions of multivalent proteins can promote clustering of membrane receptors” (eLife, 2014)

How the values were obtained:
[1] = molecular target: T1, Nck (cysteine-modified; human, residues 1-377, C139S, C232A, C266S, C340S), fluorophore-labelled (human, C139S (stands in the printed letters) | C232A (stands in the printed letters) | …, maleimide Alexa568 (imaging of association and three color imaging) or Alexa488 (FRAP) on cysteine); test: fluorescence (TIRF) microscopy of recruitment to a supported lipid bilayer; His8-p-Nephrin Alexa488 attached to a DOPC bilayer with 1% Ni2+-NTA DOGS; 1 uM Nck Alexa568 alone in solution; 25 mM Hepes pH 7.5, 150 mM NaCl, 1 mM MgCl2, 1 mM BME, 0.1% BSA; details: both partners purified
T1 construct: extra N-terminal residues printed before Met1, with the only cysteine left in the chain; Nck, human, residues 1-377 with C139S, C232A, C266S, C340S; The methods tell the expression and purification for GST-Nck; that the cysteine-modified form was made the same way is surmised; also called Nck Alexa568; Nck Alexa488; source: E. coli BL21(DE3)T1R, purified; labelled with a maleimide-conjugated …

[2] = molecular target: T2, Nck (human, WT, residues 1-377) (human); test: ITC; Nck (150 uM) in the syringe titrated into 5 uM p-Nephrin (3pY) or p-TIR (3pY); 25 mM Hepes pH 7.5, 150 mM NaCl, 1 mM MgCl2, 2 mM TCEP; three-site binding model with a single affinity for Nck (NITPIC, Sedphat); the constant is that of one pTyr site; details: both partners purified
T2 construct: two extra N-terminal residues printed before Met1; Nck, human, WT, residues 1-377; source: E. coli BL21(DE3)T1R, purified (glutathione sepharose, TEV on beads, Source 15Q, Source 15S, SD75)

| Binder | binding result [1] | Kd [2] |
| --- | --- | --- |
| triply phosphorylated His8-tagged Nephrin cytoplasmic tail (amino acids 1174-1223, Y1183F, Y1210F; pTyr1176, pTyr1193, pTyr1217) (domain or fragment, human, phosphotyrosine at Tyr1176, Tyr1193 and Tyr1217; maleimide Alexa488 on the single cysteine of the linker (bilayer experiments), N-terminal stretch as printed: holds the His8 tag named under tags and the (Gly-Gly-Ser)5 linker with the cysteine that is labelled; Nephrin, human, cytoplasmic tail residues 1174-1223 with Y1183F and Y1210F; also called p-Nephrin; Nephrin3Y (before phosphorylation); source: E. coli BL21(DE3)T1R, purified (Ni-NTA, Source 15Q, SD200); phosphorylated with Lck kinase and purified again (Source 15Q, …)) GGSLEHHHHHHHHGGSCGGSGGSGGSGGSHLYDEVERTFPPSGAWGPLYDEVQMGPWDLHWPEDTFQDPRGIYDQVAGD | binds | 370 nM |
| triply phosphorylated TIR3Y (His8-tagged human Nephrin tail with its pTyr sites replaced by the pTyr motif of EPEC Tir) (domain or fragment, phosphotyrosine in each of the three Tir motifs (triply phosphorylated); fluorescent in the bilayer experiments, N-terminal stretch as printed: holds the His8 tag named under tags, the Gly-Gly-Ser linker with the cysteine, and HM before the first Tir motif; Nephrin, human, stretch between the first and second pTyr sites; Nephrin, human, stretch between the second and third pTyr sites, with Phe at 1210 as in Nephrin3Y; also called p-TIR; p-TIR (3pY); source: E. coli BL21(DE3)T1R, purified (told for …)) GGSLEHHHHHHHHGGSCGGSGGSGGSGGSHMHIYDEVAADPPPSGAWGHIYDEVAADPWDLHWPEDTFQDPRHIYDEVAADP | – | 40 nM |
